{"source": "paper PMC6786761", "proteins": {"B1": {"name": "D-6-hydroxynicotine oxidase (DHNO) (Paenarthrobacter nicotinovorans) (protein)", "chain": "MSSKLATPLSIQGEVIYPDDSGFDAIANIWDGRHLQRPSLIARCLSAGDVAKSVRYACDNGLEISVRSGGHNPNGYATNDGGIVLDLRLMNSIHIDTAGSRARIGGGVISGDLVKEAAKFGLAAVTGMHPKVGFCGLALNGGVGFLTPKYGLASDNILGATLVTATGDVIYCSDDERPELFWAVRGAGPNFGVVTEVEVQLYELPRKMLAGFITWAPSVSELAGLLTSLLDALNEMADHIYPSVFVGVDENRAPSVTVCVGHLGGLDIAERDIARLRGLGRTVSDSIAVRSYDEVVALNAEVGSFEDGMSNLWIDREIAMPNARFAEAIAGNLDKFVSEPASGGSVKLEIEGMPFGNPKRTPARHRDAMGVLALAEWSGAAPGSEKYPELARELDAALLRAGVTTSGFGLLNNNSEVTAEMVAEVYKPEVYCRLAAVKREYDPENRFRHNYNIDPEGS"}}, "substrate": "CN1CCC[C@@H]1c1cccnc1", "assay": "oxygen electrode, initial rates", "assay_type": "biochemical, Paenarthrobacter nicotinovorans", "conditions": "0.1 M Na-HEPES pH 8.0, 0.1 M NaCl, 25 °C, 250 μM O2, apparent", "data": [{"protein": "B1", "values": [{"measurement": "Km", "value": "840 ± 120", "unit": "µM"}]}]}
